# Assay: label from the status in PepcDB records
# 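Further: failed if final PepcDB status was selected cloned or expressed and not failed if soluble or beyond.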
row,Sequence,protein production
1,MKQVVLNLKDGDLTVEEVPIPTIKGSGVLVRNHYSVISAGTESGVVDLADKSLIGKARARPDLAMKVINKAKQDGPISAFQQAMGRLEKREPLGYSSAGTVISVSEDIKDIKPGDRVACAGAGYANHADVVFVPRNLCAKVPENVDFKNACFTTVGSIAMQGVRNADVKIGENIVVIGLGLIGLITLQILKASGCRVFGVDLDESKVNLARELGADLSYSRNSPNLEERIKQFSRGIGADSTIITAATRSNDPVDFAGKITRERGKVVIVGLVGMDIPREEYYNKELEMRISRSYGPGRYDRNYEEYGQDYPAPYVRWTENRNMQAFLDLISMKKISMEPIITHEYEIEQAPEAYNIIKERKPYLGLVLKYDTDKRIEDKVILKSPGPVSAISESFSPVLGVIGAGIFATSILLPNLSKIKGVKLKGLSAASGLSCESVAKKYGFEYCTSDYHKILSDPEINCVSIVTRNSLHASLVIEALKNKKNVLVEKPLALNEEELNAIIEAKKENGGFIMVGFNRRYSELGVKLKDFFKNRSQSMVAYYRVNAESIPKDHWVYDESEGGSRIITECCHFIDFMQFIIGSSPVEVYARKIESQVKTPEDNENVSITIAFEDGSIGTLIYTTHGDSSVSKEHAEFFADGMVGAITDFKQLKLVKDGKCTQINKRLITEKGHKNELENFFKMVKQGPSKYSFEENVLTTVSTLKAAEHVMSGGPVKLI,failed
2,MKRATLPRGRVAGLTAGSLAAVGLALALTLGGVSVVPSGFDGIEDLPLPGGADLGDHPYTVTAELQDVLSLVPHSAVRVNDVAVGRITGIELGEDDWSARVTMEINGEVRLPADATARLEQSSLLGEKYVQLVAPAKETGTGRLTDGSVIPLARTSRNTEVEEVFGALSLLLNGGGVNQLKTITRELNAALGGREPEVRSMLKRVNTLVGDLDDHRGDITDALDAVNRLSSTLATRKDDVGTVLTDLSPGLKTLERQRGSLLTMLRSLDTLSGVAVSTINASKDDMIADLKAVAPTLRALADAGTDLPDSLQVLLTYPFTDEVLRGVKGDYLNTYLSMVAVPGTEVIPPLVDGDTPGPTASATAQDGPDPAAKNPAAKNPISRKRSSGQRGSASPLPLPSVSGAGPASGGEHGLEHHHHHH,not failed
3,MKRCRRRTQAGIRINLCVQGREGLSSPTPIGPIVTSTQPDSRASSLTDDALQWTRLEVAFTAGIVGCLLFATWQLGDLLARDWLAGWVGESELREDLVYYGVAFTAALAALGGTTRSLAHAGRFRRTVGRSLLWYGALLLISASGMGAIEYLPEVAAGLFGAGVLIAAVYVLQQRYFTRERIRRRRLRNDNCPQCGSDLRPEAHHCSQCGRRMGEDCPECGGYLGRSDRYCADCGRERAEGAP,failed
4,MKREGNMTLLVRNFIVSIALAISDFFSFVISLYLAIGVLSITISDYETVISVNQLEGWKALHWLLGLCCIAWYSMRLRHYFYRKTFWFELKEILRTLVIFAIIEIAVMAFASWSFSRYLWVLTWFFVLLLVPLARMVTKRVLDVFGLWHRDTWIIGSGANAQEAYKAINSERNLGLVIVGFIAVTGERSENKDINGVPVLAHDPDWLSSMDKKTQFIVAVESHQSEVRNAWLRNFMIKGYRYISVIPTLRGMPLDSTDMSFIFSHEVMIFRVQQNLAKWSSRILKRAFDIVGSLAIIIILSPALIYISRKVKRDGGPSIYGHERIGKGGKSFKCLKFRSMVINSKEVLEKLLDSDSEAKKEWDATFKLKNDPRITKIGAFLRRTSLDELPQLFNVLKGEMSLVGPRPIITAELIRYNDEVDYYLLSKPGMTGLWQVSGRSDVDYETRVYLDAWYVKNWSMWNDIAILFKTISVVLKKDGAY,failed
5,MKRENIKTILLTVLVVISLVFTWGIWTFQPNFSEGSSSTESTVRVKHKIEKTTQKLSETVRPRDMFIHDDGAHYKVDDNALYEEIWSDLPHWDVKGIKDISDQYDKAGFKSWFYGIGGSEAKLDLQFSDTIPIDIFQTLFKWSNQSFEYSSFDHILIPFNETKANKKIYLVSYSKQLILEVTVESANYRNIMNDLKNRQSNMPAFSLFSIGSKKEFLLPNKPLTMDKKEFVTESIKTNTFKQALFSDPSIVREDSNYNNRNVLTDGISRLDVNLSQRQVQFQQRNLVQSTSYQTGELIKKSQKYLEDTGSWTDHYQFFNINDSQQLSFYIFMDQIPVINSTAKPFGATSAITVQWANDDILSYKRPNYSLGTNPIKTSETELMGGSEVKMLLSKQTAYDTDKIDQIFLAYQLVSTSTNDDPLVELEPVWAMKVNGKIVPITKDLLRKEGANSGVE,failed
6,MKRFILLSFVVLALGFYELSGGPDFDPEVARASIIDARQERELARKAALPGPVYVAAAPSAEPEVEDSVTRANLNLVSFASVVAEPEISTVTAPVAVARADTPETAPEITVKRLAAAQDEPLSLAALSPAQEPSRNVFAGSSIVASSSDINGEKNLRSVKGTRVNMRSGPGTQYDVVAQLTQSEEVEVLTDTGNGWVELRPLEGGPTGWVAEFLLTGG,failed
7,MKRFINRRQELDFLEKQYREQNSSLVIIYGRRRIGKTALIKKFIEDKPAIYFLASEEAESQNIEYYKKAVGNFLKNPLIERLSGVGWDDIFDVIINAKINKKTVIVFDEFQNLCKTNPAFASIVQRIWDEKLKNHNFMLILSGSLVGMMQEHALSYSSPLYGRRTGQIKLKQFSFKEAKEFFPEASDDQFIWIYSIVGGVPKYLEMFKFEGDIYKAIEENILSRQSFLYEEPLFLLEKEVHEVGSYFSIIKSIALGNHKLSQIAQSLSTAQTKLTKYLNTLIDLDIVRREVPVTEEYPEKSKRGLYFINDNFIDFWFKFVYPYREQLELDNTEYVIENIKSKIVTNHISFIYEEVCRQILMDLIKTKEIDIQLDRIGKWWDSKSEIDIVGISKNTGHVVFGECKYSQRVVDIDVFFNLKKKAENIKVFPEQKELYILFSRTGFSERLLEFAKETENLILIKFP,failed
8,MKRFPFRPRLLVTVSLVALLLPGCASKPNNLKPSMPEPRLGVASENPGKPKKGKQASSGSQYDTLWERMFSLYALPQVEHRSVEREVSWFINHPDYLKRAQKRAEPFLYTIVRQLEKQKMPGELALLPIVESAFQPHAVSPARAAGIWQFIPETGRRYGLKRSRSYDGRRDVYASTRAAIKYLKKLHNDFNGDWLLAIAAYNCGEGAVAKAIQRNEARNLPTDFWSLDLPDETKAYVPRLLAVSKVFANADKYAIDLHYIPNEAIFKPVKVSSQLDLALAADAADMSLERMLELNPGFKHPHADIEGSYRLFVPADKSRKFKKELARLAMSGQFDSHPPADEGDGSTGFGHRGSLETATEDDAAPGRERSVRKPVVSGYGAEYAVPSRSAERGGPAKDSSRSERWQSVETPSRGGSAVVAHLRDGSRLRDVWGREHGQEDKPLKGNRRPDERLGLSSKANPNRKEGGRKVAGGSALSREEALREERGDRGKEKHAISIPFDERHGGGIKASQSIRHTVKPGETLFAISQRFGVSVADLRKWNGVKENKLEAGRNIRVSAGKD,failed
9,MKRGLRKERNKEDEAGKIVNEGKAHLFYKVIILMVFYISYGIYLYWRFAYTIPRGYGDIALIAGYVLFIAETIGFLESSMFYLTLWDTNTPSTPEVQDKEFPHVDIFIASYNEPRNLLYKTLIGCKNMDYPDKSKVHIYICDDGNRKDIKELCESLKVGYITREDNTHAKAGNLNNALKQTSSPYVVTFDADMIPMHDFLLKTIPFFMVEDKIGFVQVPQNFYNADPFQYNLFNESRVPNEQNLFSRLIQAGKNRFNAIIYSGSNTVLSREALNEINGLVVGTITEDFATGMKIQSKGYKCIYLNETHASGLSPESLEDLYSQRIRWGRGVIQTFKAFNPLFMRGLNIYQKLMYFSAFSYWYFGLWRLIFFMAPIVFSVFGVVVLSTSAIQMLEVWLPMFIFTNLTFYHFSKKVRSVSWTHIYDTILFPQITVGILKETFGFKMSKFKVTPKENVRRDNFTNRFELVRVQIVLAVLSFAGIVRIIYLYVTNNFEAQYIINLFWLTYNFYLLVMAIFFASERPKFRNNERMFVSEEAYVVNNEQKLYGKTIDISETGISIKLEKPICIDPNENYSIGVKTARNSAEFSGKIVRVDNFKDGHKYAFNITEIDEKNFSELILILYDRVPPSPEKQKRDYMTVNVLRNIINRKKRIVPLNRKLPRVKIDKKVKILVSKNEEGIHVVDFNYMYIAVKCVQEYDSFILPLSEKFNINLNCTYDKTLSERNRKKVSIYKVTNYDEFKDHDLLELLKAVPVYNEELNIHEKVAAVK,failed
10,MKRIQVSPHIYKLESWFLLKMSAWIVKEDEGVYIVDTGMPYMGKRILKEAEKLGKVKGVLLTHGHSDHVGGLKKILDIQDLPVYVHTLDIKHMEGKEPFPGRKKREYLVEPGVAKPLPVDEDGEFRCFGNLVPYHTPGHSPGHVCYYHKKDRVLIGGDLFTSKRGKLQQPIKMFTADMNEAVRSGEIVKKLQPSKVSICHGNDIDNPHTQIDEYLTHYKYERNDQQKIKNEDRTIS,failed
11,MKRKAFLALGFLALGLGVSQVGPFRARLEAAIQTGGEAFAQVMLSQDKAQALCTQYRDKLPPELVPAFLAEQRALIKYPASGKLMGDWKNGEKVFTDPKRGNCYACHQGDPREVAYGTMGPSLTGYGQRGLSEAVVRYTYEKIYNAWAFVPCSLMYRGGVHGYFTPEETADLVAYLLSPESPINRR,failed
12,MKRKLLAILLSVSMIATLVTACGSKEVSDNSAKEEGVTVEDVKAALKDENAVVLDARTQDAYAGWSTENNKLGGHIESSSGFSAAWLTCEYDDEANDDNRTREERLEICMEDKGITADTKVIIYDENGKDAAAVSEYLSGKGVKDIETFNLADWDGELVKYENYQTILPPSIVKKLIDGETVEEVGEVKDLKVLEFSWGTEEESGYLEGHVPTAIHINSDDVDDENNIYVLDKDEILLETVKKAGVTVDSTVVVTGAGLFSCHLATILKYLGVEDVYIMSGGANGWTDAGYEAEKGSNTPVAVEDFGTDKPLNPDYIDDVEEVSLLLTDKNAQVIDTRAYKEFTGESSGYSYVEEAGRLNGAIFGQEDGSAQGPDCTGSSMMYYENIDGTMRDASEILEMWSNSNVDVNKHLSFYCGGGYRAAAVMWYAQAMGLEDTSLYNDGWAGWIVYGKDAVKGTYEDPQPVN,failed
13,MKRKMENMKYTMSYIAKNFRVALMLSLMMLLCSCSSEDKLELHKGATLPIMQGIADNVPYIQSVEKELTYDLYDGVRITDVIFTYCAKPTRMIIAEVDLNKNVTIVTSTPDNKPEVGKILQQVTVQAEKAEAAGRKVILGTNGDFYSKKNDLWIPGGLFYKDGVAIKTEIGWEADHVFYMLKDGTAHITSVPEFKLVEREVVHAIGGWQRMVQDGEVVKNFTVNDNAMQFHPRTFVGVSADNRKVYLFVVDGRQPEYSNGMRLEDMMLLCQGAGCYQAFNMDGGGSTTMVRRVEKGSSVSFEVMNQPSDNPARSVINGLQVIEKTN,failed
14,MKRKSIFLTFGLLVLSWIGCVENDLPYPTIVGQITEMEVAGMTSCRILGASNTVEIKVADTIDLRDLRVEKLVVTEGMKVYPDSAACLDIAHFPDTGFVSADSLPAGMDTRMNFLNPVKFRLSLYQDYDWTVNVSRDIVRKIKIKNQVGSALIDDYTKNVIVYVDSTEQPSLRNIEIEELQLGSSIAQTTPDPSKVVDFTRPRVFYVTAFDETEEWTLSVQYPNANVQLTQLSAWTRRAYVSGSISKGEVEAEYRKAGETVWESVLPNEISYEGEDFLIMMTHLAAGTNYEYRLTMNGTVGEILTFTTDTIMQVPNLGFDDWVMKNEKTWYPNATLDDADHFWDSGNEGASIASRNPTAPETGDVVKGRAVRMASDYISIASKFAAGNIYTGDFVGLAGIEGAELDFGQPYTGRPSALKGYYRYTPGVIDQAKAPYDALMGQTDSCHIYIGLFDWSAPFRVNTTTGTFVDLTWNNESMIAFGELKSNEATGSEYKQFKINLTYRDYFTHPKYILIVASASKYGDYFTGSTSSVMYLDECELVFE,failed
15,MKRKTAVKWLAVLAGAGLLYWGNKTYLNVSPKEIRVWVLSFGVFAPLMFIGISIVRPLVLFPVSVISIAGGLAFGPLLGTLYTLFGSMCASAVSFFAAGLFSAKKNGHYERLEAIQKQMEDNGFFYIFLLRILPINFDFVSYAAGLSNVKALPYFAATAVGIIPGTIALNVLGASFLAGNLPAFFMVLALYIVFISLPFIFRKKMQNLFQESN,failed
